Measured values reported in publication PMC9482650, “Quantitative fragmentomics allow affinity mapping of interactomes” (Nature Communications, 2022).

Tests used:
Assay in all cases: holdup assay
Set-up in all cases: key: below the threshold = too weak to quantify, mostly under pKd 3.1 to 4
Details in all cases: plain residues with an end cap or a label only (N-terminal biotin on a linker: ado-ado)
[1] = target: MAST1, Q9Y2H9
[2] = target: T1, DLG3_3, Q92796
T1 sequence (Q92796 374-475, limits assumed, looked up): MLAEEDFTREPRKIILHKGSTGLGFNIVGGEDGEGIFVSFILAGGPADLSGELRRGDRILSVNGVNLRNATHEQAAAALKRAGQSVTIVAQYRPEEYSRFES

[3] = target: MAGI2_2, Q86UL8
Sequence of MAGI2_2, Q86UL8 (Q86UL8 410-522): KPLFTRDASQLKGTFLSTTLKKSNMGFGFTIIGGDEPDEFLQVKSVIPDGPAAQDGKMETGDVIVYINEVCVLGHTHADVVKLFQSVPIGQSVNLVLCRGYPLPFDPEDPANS

[4] = target: HTRA2, O43464
Sequence of HTRA2, O43464 (O43464 355-458): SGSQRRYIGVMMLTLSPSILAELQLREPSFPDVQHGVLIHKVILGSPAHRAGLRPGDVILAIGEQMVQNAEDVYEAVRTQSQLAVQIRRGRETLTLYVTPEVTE

[5] = target: T2, PTPN13_1, Q12923
T2 sequence (Q12923 1088-1188, limits assumed, looked up): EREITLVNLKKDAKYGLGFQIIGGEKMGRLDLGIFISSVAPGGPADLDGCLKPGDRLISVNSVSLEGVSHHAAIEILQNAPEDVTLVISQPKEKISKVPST

[6] = target: IL16_3, Q14005
Sequence of IL16_3, Q14005 (Q14005 1107-1207): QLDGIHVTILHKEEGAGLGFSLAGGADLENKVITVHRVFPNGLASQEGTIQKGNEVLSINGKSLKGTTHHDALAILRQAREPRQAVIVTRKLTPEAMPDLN

[7] = target: Inadl_5, Q8NI35
Sequence of Inadl_5, Q8NI35 (Q8NI35 673-780): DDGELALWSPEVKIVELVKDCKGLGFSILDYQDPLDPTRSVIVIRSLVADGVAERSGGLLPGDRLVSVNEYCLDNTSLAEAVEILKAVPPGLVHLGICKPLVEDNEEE

[8] = target: T3, DLG3_2, Q92796
T3 sequence (Q92796 221-321, limits assumed, looked up): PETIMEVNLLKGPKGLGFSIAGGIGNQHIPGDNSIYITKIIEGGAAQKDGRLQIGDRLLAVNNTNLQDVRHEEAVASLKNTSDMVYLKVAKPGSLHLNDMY

[9] = target: T4, TX1BP3, O14907
T4 sequence (O14907 10-122, limits assumed, looked up): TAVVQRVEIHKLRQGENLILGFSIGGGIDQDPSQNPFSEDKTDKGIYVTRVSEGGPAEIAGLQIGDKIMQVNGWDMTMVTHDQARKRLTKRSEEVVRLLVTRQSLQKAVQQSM

[10] = target: PICK1, Q9NRD5
Sequence of PICK1, Q9NRD5 (Q9NRD5 17-115): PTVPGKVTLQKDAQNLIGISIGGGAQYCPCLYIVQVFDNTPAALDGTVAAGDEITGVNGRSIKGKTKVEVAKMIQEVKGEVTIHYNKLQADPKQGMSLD

[11] = target: NOS1, P29475
Sequence of NOS1, P29475 (P29475 9-101): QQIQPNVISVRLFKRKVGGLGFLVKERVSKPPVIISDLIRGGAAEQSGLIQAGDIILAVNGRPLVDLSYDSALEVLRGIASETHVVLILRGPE

[12] = target: Inadl_6, Q8NI35
Sequence of Inadl_6, Q8NI35 (Q8NI35 1058-1167): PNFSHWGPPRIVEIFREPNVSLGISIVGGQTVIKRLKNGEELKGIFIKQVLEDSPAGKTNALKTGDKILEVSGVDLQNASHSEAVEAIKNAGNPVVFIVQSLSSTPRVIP

[13] = target: T5, RADIL, Q96JH8
T5 sequence (Q96JH8 971-1071, limits assumed, looked up): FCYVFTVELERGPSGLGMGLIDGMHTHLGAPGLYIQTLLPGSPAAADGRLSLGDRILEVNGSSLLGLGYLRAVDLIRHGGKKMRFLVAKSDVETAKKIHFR

[14] = target: T6, LIN7C, Q9NUP9
T6 sequence (Q9NUP9 88-185, limits assumed, looked up): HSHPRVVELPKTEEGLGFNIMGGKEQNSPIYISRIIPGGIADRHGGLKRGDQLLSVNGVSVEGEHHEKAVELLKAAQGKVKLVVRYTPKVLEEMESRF

[15] = target: FRMPD2_3, Q68DX3
Sequence of FRMPD2_3, Q68DX3 (Q68DX3 1073-1166): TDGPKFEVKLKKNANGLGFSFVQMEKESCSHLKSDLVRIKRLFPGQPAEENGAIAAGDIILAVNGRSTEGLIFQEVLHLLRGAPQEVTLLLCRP

[16] = target: MAGI2_5, Q86UL8
Sequence of MAGI2_5, Q86UL8 (Q86UL8 915-1017): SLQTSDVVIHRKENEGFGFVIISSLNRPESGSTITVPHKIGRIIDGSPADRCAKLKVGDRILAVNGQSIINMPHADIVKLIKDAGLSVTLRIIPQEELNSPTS

[17] = target: T7, DFNB31_2, Q9P202
T7 sequence (Q9P202 274-371, limits assumed, looked up): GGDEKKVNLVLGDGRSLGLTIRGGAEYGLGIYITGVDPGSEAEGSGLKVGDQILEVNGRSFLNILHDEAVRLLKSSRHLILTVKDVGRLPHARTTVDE

[18] = target: DLG4_3, P78352
Sequence of DLG4_3, P78352 (P78352 306-403): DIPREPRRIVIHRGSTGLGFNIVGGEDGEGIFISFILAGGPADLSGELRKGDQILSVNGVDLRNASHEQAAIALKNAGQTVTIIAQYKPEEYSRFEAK

[19] = target: SCRIB_3, Q14160
Sequence of SCRIB_3, Q14160 (Q14160 999-1103): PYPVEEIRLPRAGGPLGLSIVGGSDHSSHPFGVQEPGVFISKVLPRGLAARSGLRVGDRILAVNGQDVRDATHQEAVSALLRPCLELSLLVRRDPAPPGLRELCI

[20] = target: T8, PDZD2_2, O15018
T8 sequence (O15018 329-429, limits assumed, looked up): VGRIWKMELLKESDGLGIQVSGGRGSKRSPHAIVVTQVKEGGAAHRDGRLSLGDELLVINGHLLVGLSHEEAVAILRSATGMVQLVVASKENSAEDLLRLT

[21] = target: LAP2, Q96RT1
Sequence of LAP2, Q96RT1 (Q96RT1 other isoform, or with tags, fused parts or gaps): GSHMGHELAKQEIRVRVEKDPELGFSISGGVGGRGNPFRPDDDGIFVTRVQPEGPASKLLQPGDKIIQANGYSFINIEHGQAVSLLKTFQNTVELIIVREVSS

[22] = target: Inadl_4, Q8NI35
Sequence of Inadl_4, Q8NI35 (Q8NI35 547-651): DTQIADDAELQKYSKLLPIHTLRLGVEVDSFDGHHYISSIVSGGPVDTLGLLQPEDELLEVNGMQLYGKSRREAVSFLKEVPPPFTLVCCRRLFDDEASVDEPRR

[23] = target: T9, MPP7, Q5T2T1
T9 sequence (Q5T2T1 134-230, limits assumed, looked up): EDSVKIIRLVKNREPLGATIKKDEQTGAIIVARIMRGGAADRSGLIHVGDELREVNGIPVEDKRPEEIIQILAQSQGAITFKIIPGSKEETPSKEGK

[24] = target: Inadl_1, Q8NI35
Sequence of Inadl_1, Q8NI35 (Q8NI35 113-229): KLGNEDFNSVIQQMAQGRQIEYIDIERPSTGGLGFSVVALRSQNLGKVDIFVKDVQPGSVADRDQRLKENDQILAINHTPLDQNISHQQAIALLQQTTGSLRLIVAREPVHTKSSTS

[25] = target: T10, HTRA4, P83105
T10 sequence (P83105 378-476, limits assumed, looked up): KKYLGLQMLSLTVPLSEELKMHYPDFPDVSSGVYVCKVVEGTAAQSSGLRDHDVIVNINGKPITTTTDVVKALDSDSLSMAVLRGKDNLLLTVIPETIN

[26] = target: T11, DFNB31_3, Q9P202
T11 sequence (Q9P202 811-907, limits assumed, looked up): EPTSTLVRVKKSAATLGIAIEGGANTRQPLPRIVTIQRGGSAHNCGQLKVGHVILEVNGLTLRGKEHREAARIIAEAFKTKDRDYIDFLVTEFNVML

[27] = target: GRIP2_4, Q9C0E4
Sequence of GRIP2_4, Q9C0E4 (Q9C0E4 446-548): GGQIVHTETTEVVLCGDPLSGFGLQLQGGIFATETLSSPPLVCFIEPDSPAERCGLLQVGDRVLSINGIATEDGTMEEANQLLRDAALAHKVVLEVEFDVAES

Sequence of MAST1, Q9Y2H9 (Q9Y2H9 962-1065): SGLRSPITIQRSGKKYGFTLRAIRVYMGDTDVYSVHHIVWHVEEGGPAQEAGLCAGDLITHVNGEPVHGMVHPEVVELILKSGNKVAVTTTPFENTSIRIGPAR

Binder	pKd [1]	pKd [2]	pKd [3]	pKd [4]	pKd [5]	pKd [6]	pKd [7]	pKd [8]	pKd [9]	pKd [10]	pKd [11]	pKd [12]	pKd [13]	pKd [14]	pKd [15]	pKd [16]	pKd [17]	pKd [18]	pKd [19]	pKd [20]	other results
SRPRPDDLEI [GJA1, P17302]	below the threshold	below the threshold	below the threshold	below the threshold	below the threshold	below the threshold	below the threshold	below the threshold	below the threshold	below the threshold	below the threshold	below the threshold	below the threshold	below the threshold	below the threshold	below the threshold	below the threshold	below the threshold	below the threshold	below the threshold	pKd [21]: below the threshold; pKd [22]: below the threshold; pKd [23]: below the threshold; pKd [24]: below the threshold; pKd [25]: below the threshold; pKd [26]: below the threshold; pKd [27]: below the threshold
RALRASESGI [ADGRE5, P48960]	below the threshold	below the threshold	below the threshold	below the threshold	below the threshold	below the threshold	below the threshold	below the threshold	below the threshold	below the threshold	below the threshold	below the threshold	below the threshold	4.07	below the threshold	below the threshold	below the threshold	below the threshold	below the threshold	below the threshold	pKd [21]: below the threshold; pKd [22]: below the threshold; pKd [23]: below the threshold; pKd [24]: below the threshold; pKd [25]: 3.62; pKd [26]: 3.72; pKd [27]: below the threshold
GCQGETEDVL [PTH2R, P49190]	3.92	below the threshold	below the threshold	below the threshold	below the threshold	below the threshold	below the threshold	below the threshold	below the threshold	3.99	3.67	below the threshold	below the threshold	below the threshold	below the threshold	below the threshold	below the threshold	below the threshold	3.92	below the threshold	pKd [21]: below the threshold; pKd [22]: below the threshold; pKd [23]: below the threshold; pKd [24]: below the threshold; pKd [25]: below the threshold; pKd [26]: below the threshold; pKd [27]: below the threshold
PMESGICTIV [TTC24, A2A3L6]	4.74	below the threshold	4.11	4.18	below the threshold	below the threshold	3.87	4.89	below the threshold	4.3	3.98	4	5.38	below the threshold	3.53	4.63	below the threshold	below the threshold	4.06	4.68	pKd [21]: below the threshold; pKd [22]: below the threshold; pKd [23]: below the threshold; pKd [24]: below the threshold; pKd [25]: 4.77; pKd [26]: 3.89; pKd [27]: below the threshold
